T1: human IL-2Rγ (common cytokine receptor γ-chain) (human, UniProt P31785 23-262, limits assumed)
T1 construct: Recombinant protein coated on the plate or immobilised on a CM5 chip; also called hu IL-2R; CD132
T1 sequence: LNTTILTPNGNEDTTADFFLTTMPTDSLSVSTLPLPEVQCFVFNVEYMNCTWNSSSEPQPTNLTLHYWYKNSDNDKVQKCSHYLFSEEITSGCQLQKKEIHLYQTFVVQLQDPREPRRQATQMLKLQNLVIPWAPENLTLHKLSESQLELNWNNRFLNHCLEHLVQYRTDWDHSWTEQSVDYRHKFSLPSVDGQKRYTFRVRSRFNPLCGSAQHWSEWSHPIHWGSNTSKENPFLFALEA


Tests used:
[1] = target: T1, human IL-2Rγ (common cytokine receptor …); experiment: SPR off-rate ranking, periplasmic extract on immobilised protein
Method: SPR was performed to determine dissociation rates using Biacore 3000 instrument (GE Healthcare). Briefly, human and mouse IL-2R proteins were immobilized on carboxylmethyl dextran sensor chip (CM5) at approximately 2500 RUs using amine coupling in acetate buffer (GE Healthcare). The VHH-containing P.E. were loaded with a flow rate of 30 uL/min and the off-rates were measured over a 120s period.

[2] = target: T1, human IL-2Rγ (common cytokine receptor …); experiment: PE binding ELISA, periplasmic extract on coated protein
Method: In a binding ELISA, human or mouse IL-2Rα, IL-2Rβ and IL-2Rγ proteins were coated directly on maxisorp microtiter plates overnight at 4° C. Free binding sites were blocked using 4% Marvel in PBS for 1 hour. Next, 1:5 dilution of P.E. in 1% Marvel/PBS were added to wells and incubated for 1 hour. […] Binding specificity was determined based on O.D. at 450 nm values compared to negative controls.

Row | koff [1] [s⁻¹] | OD (PE binding ELISA) [2] [OD450 nm] | Binder
1 | 0.00131 | 0.362 | 27-MP04G01 (VHH, VHH in periplasmic extract; also called FJ1427_P035MP04G01; clone nr) VHH: QVQLVESGGGLVQAGGSLTLSCAAPGRTFGTDVVGWFRQAPGKEREFVASISRSGDGIYYDDSVKGRFTISRNNAWNTVNLQMNSLKVEDTAVYYCAAGDGWSTYDYWGQGTQVTVSS
2 | 0.00124 | 0.264 | FJ1427_P035MP04C01 (VHH, VHH in periplasmic extract; also called clone nr) VHH: QVQLVESGGGLVQAGGSLTLSCAASGRTFSTDVVGWFRQAPGKEREFVASISRSGDGIYYDDSVKGRFTISRNNAWNTVNLQMNNLKVEDTAVYYCAAGDGWSTYDYWGQGTQVTVSS
3 | 0.00331 | 0.896 | 36-MP07F02 (VHH, VHH in periplasmic extract; also called FJ1427_P035MP07F02; clone nr; 590) VHH: QVQLVESGGGLVQAGGSLRLSCAASGRTLSRYAMGWFRQAPGSEREFVAASSWGGDTFYADSVEGRFTFSRDNAKNAVYLQMNSLQPEDTAAYYCAAAPTSFPTTAYSSSNSYAYWGQGTQVTVSS
4 | 0.00327 | 0.873 | FJ1427_P035MP04B01 (VHH, VHH in periplasmic extract; also called clone nr; 290) VHH: EVQLVESGGGLVQAGASLRLSCAASGRTLSRYAMGWFRQAPGKEREFVAASSWGGDTYYADSVEGRFTFSRDNAKNAVYLQMNSLQPEDTAVYYCAGAPTSFATTAYSSSNSYAYWGQGTQVTVSS
5 | 0.0091 | 0.863 | FJ1427_P035MP04G07 (VHH, VHH in periplasmic extract; also called clone nr) VHH: QVQLVESGGGWVQVGESLRLSCAPSGRTFVSGIMGWFRQAPGKEREFVARIILNNNSTRYTDSVKGRFTISRDSAKNTMYLQMNTLRPEDTAVYYCAARDRYGSGNSLSPSAYDYWGQGTQVTVSS
6 | 0.00844 | 1.49 | 30-MP04C03 (VHH, VHH in periplasmic extract; also called FJ1427_P035MP04C03; clone nr) VHH: EVQLVESGGGWVQDGGSLRLSCALSGRTFVRGIMGWFRQAPGKEREFVARIIWHINSTRYADSVKGRFTISRDSAKNTMYLQMDSLRPEDTAVYYCAARDRYGSGNSLSPSAYDYWGQGTQVTVSS
7 | 0.00749 | 1.47 | FJ1427_P035MP04B10 (VHH, VHH in periplasmic extract; also called clone nr) VHH: EVQLVESGGGWVQVGESLRLSCAPSGRTFVSGIMGWFRQAPGKEREFVARIILNNNSTRYIDSVKGRFTISRDSAKNTMYLQMDSLRPEDTAVYYCAARDRYGSGNSLSPSAYDYWGQGTQVTVSL
8 | 0.0207 | 1.93 | FJ1427_P035MP04D09 (VHH, VHH in periplasmic extract; also called clone nr) VHH: QVQLVESGGGWVQVGESLRLSCAPSGRTFVRGIMGWFRQAPGKEREFVARIILNSNSTRYIDSVKGRFTISRDSAKNTMYLQMNSLRPEDTAVYYCAARDRYGSGNSLSPSAYDYWGQGTQVTVSS
9 | 0.0103 | 0.75 | FJ1427_P035MP04B11 (VHH, VHH in periplasmic extract; also called clone nr; 370) VHH: EVQLVESGGGWVQVGESLRLSCAPSGRTFVSGIMGWFRQAPGKEREFVARIILNNNSTRYIDSVKGRFTISRDSAKNTMYLQMDSLRPEDTAVYYCAARDRYGSGNSLSPSAYDYWGQGTQVTVSS
10 | 0.00795 | 1.77 | FJ1427_P035MP04F09 (VHH, VHH in periplasmic extract; also called clone nr) VHH: QVQLVESGGGWVQVGESLRLSCAPSGRTFVRGIMGWFRQAPGKEREFVARIILNNNSTRYTDSVKGRFTISRDSAKNTMWLQMDSLRPEDTAVYYCAARDRYGSGNSLSPSAYDYWGQGTQVTVSS
11 | 0.0072 | 1.05 | FJ1427_P035MP04D12 (VHH, VHH in periplasmic extract; also called clone nr; 380) VHH: QVQLVESGGGWVQVGKSLRLSCAPSGRTFVSGIMGWFRQAPGKEREFVARIILNNNSTRYIDSVKGRFTISRDSAKNTMYLQMDSLRPEDTAVYYCAARDRYGSGNSLSPSAYDYWGQGTQVTVSS
12 | 0.00732 | 1.68 | FJ1427_P035MP04C12 (VHH, VHH in periplasmic extract; also called clone nr) VHH: EVQLVESGGGWVQVGESLRLSCAPSGRTFVSGIMGWFRQAPGKEREFVARIILNNNSTRYIDSVKGRFTISRDSAKNTMYLQMDSLRPEDTAVYYCAARDRYGSGNSLSPSAYDYWGQGTQVTVSS
13 | 0.00652 | 1.98 | FJ1427_P035MP04E02 (VHH, VHH in periplasmic extract; also called clone nr; 301) VHH: QVQLVESGGGWVQVGESLRLSCAPSGRTFVSGIMGWFRQTPGKEREFVARIILNNNSTRYTDSVKGRFTISRDSAKNTMYLQMNTLRPEDTAVYYCAARDRYGSGNSLSPSAYDYWGQGTQVTVSS
14 | 0.0196 | 1.9 | FJ1427_P035MP04A07 (VHH, VHH in periplasmic extract; also called clone nr) VHH: QLQLVESGGGWVQVGESLRLSCAPSGRTFVSGIMGWFRQAPGKEREFVARIILNNNSTRYIDSVKGRFTISRDSAKNTMYLQMDSLRPEDTAVYYCAARDRYGSGNSLSPSAYDYWGQGTQVTVSS
15 | 0.00796 | 1.73 | FJ1427_P035MP04E04 (VHH, VHH in periplasmic extract; also called clone nr) VHH: EVQLVESGGGWVQVGESLRLSCVPSGRTFVSGIMGWFRQAPGKEREFVARIILNSNSTRYTDSVKGRFTISRDSAKNTMYLQMNSLRPEDTAVYYCAARDRYGSGNSLSPSAYDYWGQGTQVTVSS
16 | 0.0208 | 1.45 | FJ1427_P035MP04B06 (VHH, VHH in periplasmic extract; also called clone nr; 330) VHH: QLQLVESGGGWVQVGESLRLSCVPSGRTFVSGIMGWFRQAPGKEREFVARIILNNNSTRYTDSVKGRFTISRDSAKNTMYLQMNTLRPEDTAVYYCAARDRYGSGNSLSPSAYDYWGQGTQVTVSS
17 | 0.00712 | 1.87 | FJ1427_P035MP04A03 (VHH, VHH in periplasmic extract; also called clone nr) VHH: EVQLVESGGGWVQVGESLRLSCAPSGRTFVSGIMGWFRQTPGKEREFVARIILNNNSTRYTDSVKGRFTISRDSAKNTMYLQMNTLRPEDTAVYYCAARDRYGSGNSLSPSAYDYWGQGTQVTVSS
18 | 0.0205 | 1.33 | FJ1427_P035MP04C10 (VHH, VHH in periplasmic extract; also called clone nr) VHH: QVQLQESGGGWVQVGESLRLSCVPSGRTFVSGIMGWFRQAPGKEREFVARIILNNNSTRYTDSVKGRFTISRDSAKNTMYLQMNTLRPEDTAVYYCAARDRYGSGNSLSPSAYDYWGQGTQVTVSS
19 | 0.0147 | 0.751 | FJ1427_P035MP04F10 (VHH, VHH in periplasmic extract; also called clone nr) VHH: QLQLVESGGGWVQVGESLRLSCVPSGRTFVSGIMGWFRQAPGKEREFVARIISNNNSTRYTDSVKGRFTISRDSAKNTMYLQMNTLRPEDTAVYYCAARDRYGSGNSLSPSAYDYWGQGTQVTVSS
20 | 0.00744 | 0.933 | FJ1427_P035MP04G03 (VHH, VHH in periplasmic extract; also called clone nr) VHH: EVQLVESGGGWVQVGESLRLSCAPSGRTFVSGIMGWFRQAPGKEREFVARIILNNNSTRYTDSVKGRFTISRDSAKNTMYLQMDSLRPEDTAVYYCAARDRYGSGNSLSPSAYDYWGQGTQVTVSS
21 | 0.00688 | 1.33 | FJ1427_P035MP04E12 (VHH, VHH in periplasmic extract; also called clone nr) VHH: QLQLVESGGGWVQVGESLRLSCAPSGRTFASGIMGWFRQAPGKEREFVARIILNNNSTRYTDSVKGRFTISRDSAKNTMYLQMNTLRPEDTAVYYCAARDRYGSGNSLSPSAYDYWGQGTQVTVSS
22 | 0.0285 | 1.97 | FJ1427_P035MP04B02 (VHH, VHH in periplasmic extract; also called clone nr) VHH: QVQLVESGGGWVQVGESLRLSCAPSGRTFVSGIMGWFRQTPGKEREFVARIILNNNSTRYTDSVKGRFTISRDSAKNTMYLQMNTLRPEDTAVYYCAARDRYGSGNSLSPSAYDYWGQGTQVTVSS
23 | 0.0111 | 2.01 | FJ1427_P035MP04F11 (VHH, VHH in periplasmic extract; also called clone nr) VHH: QVQLVESGGGWVQVGESLRLSCAPSGRTFVSGIMGWFRQTPGKEREFVARIILNNNSTRYTDSVKGRFTISRDSAKNTLYLQMNTLRPEDTAVYYCAARDRYGSGNSLSPSAYDYWGQGTQVTVSS
24 | 0.00775 | 1.81 | FJ1427_P035MP04C05 (VHH, VHH in periplasmic extract; also called clone nr) VHH: QVQLVESGGGWVQVGESLRLSCAPSGRTFVSGIMGWFRQAPGKEREFVARIILNNNSTRYTDSVKGRFTISRDSAKDTMYLQMNTLRPEDTAVYYCAARDRYGSGNSLSPSAYDYWGQGTQVTVSS
25 | 0.0187 | 1.94 | FJ1427_P035MP04B07 (VHH, VHH in periplasmic extract; also called clone nr) VHH: EVQLVESGGGWVQVGESLRLSCAPSGRTFVSGIMGWFRQTPGKEREFVARIILNNNSTRYTDSVKGRFTISRDSAKNTLYLQMNTLRPEDTAVYYCAARDRYGSGNSLSPSAYDYWGQGTQVTVSS
26 | 0.0204 | 1.85 | FJ1427_P035MP04A10 (VHH, VHH in periplasmic extract; also called clone nr) VHH: EVQLVESGGGWVQVGESLRLSCAPSGRTFVSGIMGWFRQAPGKEREFVARIILNNNSTRYTDSVKGRFTISRDSAKNTMYLQMNTLRPEDTAVYYCAARDRYGSGNSLSPSAYDYWGQGTQVTVSS
27 | 0.00625 | 0.157 | 29-MP04H02 (VHH, VHH in periplasmic extract; also called FJ1427_P035MP04H02; clone nr) VHH: QVQLVESGGGLVQAGGSLRLACVASGLTFDNYYMGWFRQAPGKEREFVAGIIWNGDHTAYADSIKGRFTISRDNAKNTAYLRMNSLKPEDTAVYYCAATFWIERATTPDIGQYAYWGQGTQVTVSS
